No end group written: not given here.
Target: T1, recombinant endotheliase 1 (human, UniProt Q9UL52 192-423, limits assumed)
T1 construct: also called ET1; rET1
T1 sequence: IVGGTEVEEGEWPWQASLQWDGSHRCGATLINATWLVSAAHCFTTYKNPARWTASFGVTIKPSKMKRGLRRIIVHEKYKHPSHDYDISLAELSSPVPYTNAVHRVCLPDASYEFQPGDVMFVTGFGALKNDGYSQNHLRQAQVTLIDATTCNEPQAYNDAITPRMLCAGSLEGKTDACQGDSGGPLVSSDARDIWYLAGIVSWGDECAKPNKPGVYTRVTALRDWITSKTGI
Experiment: inhibition of ET1 activity

Question: With AGKWHCKGYAPDCQMWGT (not fully specified (bridges); cysteine pairing not given here, synthetic peptide) [DX-1107] as the binder, how does the Ki read?
Answer: 500 nM
